# Source: the Human Domainome abundance scans (Beltran et al. 2025)
# ± gives the uncertainty stated by the source.
# B1: Homeobox protein cut-like 2, residues 895 to 963; numbered along this chain, O14529 (parent)
# chain: EVDTLELTRQVKEKLAKNGICQRIFGEKVLGLSQGSVSDMLSRPKPWSKLTQKGREPFIRMQLWLSDQL
# Variants of: B1
# Assay: abundance fitness (aPCA) (normalised: wild type 0, dead -1); higher = more abundant; growth selection in yeast, the domain comes from the species named
# Settings: Homo sapiens
row,Variant,abundance fitness
1,P46W,0.044 ± 0.085
2,P46F,0.039 ± 0.032
3,P46A,-0.236 ± 0.28
4,P46V,-0.415 ± 0.29
5,P46Q,-0.053 ± 0.082
6,K49T,-0.035 ± 0.033
7,L7C,-0.164 ± 0.051
8,L7D,-0.074 ± 0.076
9,L7A,-0.125 ± 0.04
10,L7F,-0.141 ± 0.048
11,L7W,-0.215 ± 0.031
12,L7V,-0.023 ± 0.032
13,G35R,0.037 ± 0.027
14,G35Y,-0.125 ± 0.043
15,G35L,-0.03 ± 0.024
16,G35A,-0.006 ± 0.045
17,G35Q,0.088 ± 0.03
18,Q68Y,-0.105 ± 0.044
19,Q68M,-0.022 ± 0.034
20,Q68L,-0.052 ± 0.03
21,Q68V,-0.072 ± 0.029
22,Q68G,-0.13 ± 0.03
23,Q68F,-0.099 ± 0.036
24,Q68K,0.062 ± 0.041

row,Variant,abundance fitness
1,D39H,-0.279 ± 0.12
2,D39N,-0.188 ± 0.15
3,D39A,-0.063 ± 0.09
4,D39S,-0.073 ± 0.057
5,D39Y,-0.324 ± 0.11
6,D39M,-0.178 ± 0.097
7,D67K,-0.037 ± 0.078
8,D67E,-0.017 ± 0.12
9,D67P,-0.209 ± 0.077
10,D67Y,-0.321 ± 0.065
11,D67M,-0.25 ± 0.04
12,D67W,-0.661 ± 0.1
13,D67V,-0.549 ± 0.088
14,S66I,-0.039 ± 0.08
15,S66T,-0.008 ± 0.032
16,S66W,-0.08 ± 0.052
17,S66C,-0.048 ± 0.15
18,S66K,0.109 ± 0.041
19,T8N,-0.158 ± 0.058
20,T8S,-0.115 ± 0.031
21,T8A,-0.064 ± 0.045
22,T8G,-0.204 ± 0.04
23,T8K,-0.063 ± 0.041
24,T8P,-0.185 ± 0.038

row,Variant,abundance fitness
1,T8I,-0.107 ± 0.044
2,I24D,-0.047 ± 0.12
3,I24F,0.143 ± 0.056
4,I24N,-0.204 ± 0.079
5,I24L,0.033 ± 0.029
6,R23G,-0.103 ± 0.048
7,R23L,-0.203 ± 0.029
8,R23K,0.047 ± 0.049
9,R23F,-0.009 ± 0.056
10,R23E,0.068 ± 0.047
11,Q10N,-0.128 ± 0.046
12,Q10S,-0.155 ± 0.03
13,Q10E,-0.214 ± 0.095
14,Q10Y,-0.313 ± 0.05
15,R60Y,-0.633 ± 0.1
16,R60Q,-0.111 ± 0.032
17,R60N,-0.413 ± 0.093
18,R60E,-0.631 ± 0.19
19,R60P,-0.912 ± 0.033
20,L30K,-0.178 ± 0.038
21,L30M,-0.178 ± 0.036
22,L30Q,-0.423 ± 0.061
23,L30W,-0.21 ± 0.033
24,L30Y,-0.472 ± 0.05

row,Variant,abundance fitness
1,S33F,-0.009 ± 0.047
2,S33N,-0.003 ± 0.069
3,S33I,-0.088 ± 0.058
4,L63R,0.096 ± 0.051
5,L63I,-0.213 ± 0.059
6,L63V,-0.103 ± 0.06
7,C21A,-0.04 ± 0.038
8,C21E,-0.04 ± 0.043
9,C21W,-0.104 ± 0.035
10,C21S,0.082 ± 0.043
11,C21G,-0.062 ± 0.036
12,C21N,0.015 ± 0.088
13,V2W,-0.137 ± 0.045
14,V2P,-0.244 ± 0.056
15,V2G,-0.001 ± 0.05
16,V2K,0.017 ± 0.053
17,E13V,-0.235 ± 0.041
18,E13T,-0.144 ± 0.05
19,E13Q,-0.248 ± 0.053
20,E13H,-0.155 ± 0.08
21,E13K,-0.101 ± 0.043
22,E13A,-0.072 ± 0.044
23,E13N,-0.116 ± 0.09
24,E13W,-0.357 ± 0.047

row,Variant,abundance fitness
1,E13I,-0.139 ± 0.056
2,E13S,-0.129 ± 0.037
3,L5T,0.015 ± 0.032
4,L5G,-0.061 ± 0.03
5,L5R,-0.039 ± 0.031
6,L5V,0.015 ± 0.026
7,L5C,-0.03 ± 0.052
8,W64M,-1.06 ± 0.1
9,W64G,-0.942 ± 0.093
10,W64Y,-0.372 ± 0.092
11,W64L,-0.822 ± 0.047
12,W64V,-1.15 ± 0.087
13,W64C,-0.946 ± 0.17
14,W64H,-1.08 ± 0.14
15,R9K,-0.086 ± 0.044
16,R9H,-0.358 ± 0.1
17,R9N,-0.068 ± 0.065
18,R9F,-0.181 ± 0.046
19,R9L,-0.162 ± 0.028
20,R9Y,-0.261 ± 0.059
21,R9V,-0.15 ± 0.027
22,E27W,-0.091 ± 0.032
23,E27V,-0.18 ± 0.025
24,E27Y,-0.191 ± 0.046

row,Variant,abundance fitness
1,E27G,-0.072 ± 0.033
2,E27N,-0.108 ± 0.052
3,E27T,-0.149 ± 0.044
4,E56L,-0.211 ± 0.032
5,E56V,-0.182 ± 0.049
6,E56G,-0.245 ± 0.041
7,E56Q,-0.06 ± 0.05
8,E56R,-0.157 ± 0.04
9,E56K,-0.156 ± 0.091
10,E56M,-0.213 ± 0.059
11,K14T,0.077 ± 0.069
12,K14P,-0.208 ± 0.091
13,K14Q,-0.012 ± 0.036
14,M40L,0.136 ± 0.036
15,M40D,-0.059 ± 0.13
16,M40H,-0.287 ± 0.081
17,M40T,-0.224 ± 0.049
18,M40N,-0.473 ± 0.21
19,M40W,0.048 ± 0.046
20,Q22K,-0.095 ± 0.064
21,Q22A,-0.098 ± 0.05
22,Q22M,-0.071 ± 0.046
23,Q22V,-0.116 ± 0.041
24,R55I,-0.684 ± 0.066

row,Variant,abundance fitness
1,R55N,-0.671 ± 0.088
2,R55P,-0.814 ± 0.07
3,R55A,-0.511 ± 0.039
4,R55K,0.052 ± 0.047
5,L65W,-0.44 ± 0.12
6,L65C,-0.511 ± 0.1
7,L65D,-0.841 ± 0.27
8,L65G,-0.952 ± 0.14
9,T4A,-0.334 ± 0.034
10,T4S,-0.244 ± 0.034
11,T4E,-0.208 ± 0.041
12,T4G,-0.282 ± 0.035
13,I59L,-0.011 ± 0.031
14,I59M,-0.046 ± 0.041
15,I59Y,-0.059 ± 0.059
16,L50P,-1.04 ± 0.069
17,K45M,-0.053 ± 0.026
18,K45W,-0.313 ± 0.24
19,K45C,-0.229 ± 0.24
20,K45D,-0.108 ± 0.068
21,D3S,-0.084 ± 0.062
22,D3C,-0.279 ± 0.047
23,D3E,-0.277 ± 0.041
